In US20120231467A1:

Target: Toxin B, native full-length (270 kDa) (Clostridium difficile) (UniProt P18177)
Test: filter
Details: 2NapdU at every N (replaces all dT)

Chain of UniProt P18177 (P18177 2-2366): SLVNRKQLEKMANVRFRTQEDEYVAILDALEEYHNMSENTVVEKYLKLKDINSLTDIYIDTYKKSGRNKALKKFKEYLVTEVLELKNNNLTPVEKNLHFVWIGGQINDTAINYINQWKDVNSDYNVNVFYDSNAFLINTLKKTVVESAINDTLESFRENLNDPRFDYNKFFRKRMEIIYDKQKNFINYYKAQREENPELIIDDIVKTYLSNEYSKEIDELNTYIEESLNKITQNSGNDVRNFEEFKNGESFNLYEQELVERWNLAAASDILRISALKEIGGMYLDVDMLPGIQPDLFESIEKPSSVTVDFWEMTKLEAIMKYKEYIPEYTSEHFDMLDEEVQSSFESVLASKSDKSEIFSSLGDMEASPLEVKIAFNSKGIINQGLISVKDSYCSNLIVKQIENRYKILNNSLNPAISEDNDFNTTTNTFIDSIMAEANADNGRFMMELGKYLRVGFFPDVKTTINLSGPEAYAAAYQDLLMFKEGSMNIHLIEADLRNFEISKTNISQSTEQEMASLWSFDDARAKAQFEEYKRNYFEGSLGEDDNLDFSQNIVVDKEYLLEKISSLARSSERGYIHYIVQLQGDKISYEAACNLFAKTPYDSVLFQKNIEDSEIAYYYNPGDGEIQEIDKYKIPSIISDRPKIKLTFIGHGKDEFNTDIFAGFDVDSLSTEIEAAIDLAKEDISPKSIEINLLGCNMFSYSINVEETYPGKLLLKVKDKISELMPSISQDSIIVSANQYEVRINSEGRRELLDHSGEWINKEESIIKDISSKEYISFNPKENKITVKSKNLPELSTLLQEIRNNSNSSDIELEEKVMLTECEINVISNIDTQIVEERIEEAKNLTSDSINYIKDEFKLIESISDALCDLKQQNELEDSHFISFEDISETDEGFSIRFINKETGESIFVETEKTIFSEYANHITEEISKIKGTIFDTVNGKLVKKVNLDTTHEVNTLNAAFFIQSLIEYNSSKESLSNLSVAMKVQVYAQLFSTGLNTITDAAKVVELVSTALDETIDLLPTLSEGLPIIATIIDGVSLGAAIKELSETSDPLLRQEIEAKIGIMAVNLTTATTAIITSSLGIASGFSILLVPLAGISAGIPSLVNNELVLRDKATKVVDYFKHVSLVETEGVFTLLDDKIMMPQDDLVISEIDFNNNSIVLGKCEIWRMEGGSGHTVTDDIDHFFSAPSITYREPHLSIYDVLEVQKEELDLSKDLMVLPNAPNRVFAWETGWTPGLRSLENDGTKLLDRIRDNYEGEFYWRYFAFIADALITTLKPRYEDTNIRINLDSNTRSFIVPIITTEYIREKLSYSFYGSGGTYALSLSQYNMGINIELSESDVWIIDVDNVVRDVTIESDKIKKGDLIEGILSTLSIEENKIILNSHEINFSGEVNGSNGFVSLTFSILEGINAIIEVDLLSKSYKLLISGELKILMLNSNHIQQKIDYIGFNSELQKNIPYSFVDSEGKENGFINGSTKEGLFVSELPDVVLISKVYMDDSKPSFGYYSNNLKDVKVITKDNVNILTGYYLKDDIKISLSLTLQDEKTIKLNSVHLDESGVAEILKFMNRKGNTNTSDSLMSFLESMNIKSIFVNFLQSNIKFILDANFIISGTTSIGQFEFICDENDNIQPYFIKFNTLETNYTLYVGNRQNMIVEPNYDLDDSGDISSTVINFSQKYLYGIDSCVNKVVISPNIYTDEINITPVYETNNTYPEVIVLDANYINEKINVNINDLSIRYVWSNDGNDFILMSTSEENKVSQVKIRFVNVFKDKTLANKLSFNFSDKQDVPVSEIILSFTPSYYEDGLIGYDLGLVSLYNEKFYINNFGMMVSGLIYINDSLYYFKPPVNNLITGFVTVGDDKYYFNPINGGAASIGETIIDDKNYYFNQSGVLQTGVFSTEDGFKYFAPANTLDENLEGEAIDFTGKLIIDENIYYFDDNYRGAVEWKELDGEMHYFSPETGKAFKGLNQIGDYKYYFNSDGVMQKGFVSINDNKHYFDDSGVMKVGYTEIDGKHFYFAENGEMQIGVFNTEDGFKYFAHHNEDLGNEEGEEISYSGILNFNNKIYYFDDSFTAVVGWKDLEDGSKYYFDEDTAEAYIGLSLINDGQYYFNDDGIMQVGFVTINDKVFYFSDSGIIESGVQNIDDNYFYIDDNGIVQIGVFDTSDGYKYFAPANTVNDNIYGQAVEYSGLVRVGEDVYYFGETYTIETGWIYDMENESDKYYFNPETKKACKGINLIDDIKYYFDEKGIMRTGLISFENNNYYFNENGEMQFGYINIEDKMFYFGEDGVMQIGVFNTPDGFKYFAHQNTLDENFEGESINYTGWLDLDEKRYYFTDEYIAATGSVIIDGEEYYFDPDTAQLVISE

Sequence: CNNNNNNACCGCNGCANGACNNNAGCGGCAGNCGNGNGNG [5566-77]
- Kd: 0.23 nM
